One molecule from patent publication US20070009547A1 (INSTITUT PASTEUR, published 2007) can be followed below.

The assay concerns the target T1, CFP-10 carrying an N-terminal HIS tag, produced by BCG::2F9-HIS-EsxB (Mycobacterium tuberculosis, UniProt P9WNK5 2-100).
T1 sequence: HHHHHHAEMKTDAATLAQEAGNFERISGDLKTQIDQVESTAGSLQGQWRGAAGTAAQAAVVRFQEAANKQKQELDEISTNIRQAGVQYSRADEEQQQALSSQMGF
Description: Ni-NTA co-purification, Coomassie gel and western blot. (In general: Immunoblotting shows a protein as a band on a membrane.)

B1: 6 kDa early secreted antigenic target (ESAT-6), native, encoded by esxA (other)
chain: TEQQWNFAGIEAAASAIQGNVTSIHSLLDEGKQSLTKLAAAWGGSGSEAYQGVQQKWDATATELNNALQNLARTISEAGQAMASTEGNVTGMFA
Consider B1, for which the binding result is reported as “binds”.
